The record followed here is patent publication US20250127942A1 (MEDICOVESTOR, published 2025).

The target of the assay is T1, recombinant 6His-Sp17 protein (human, UniProt Q15506 1-151, limits assumed).
T1 construct: The species is not restated for this recombinant protein; not shown: 6His tag
T1 sequence (looked up): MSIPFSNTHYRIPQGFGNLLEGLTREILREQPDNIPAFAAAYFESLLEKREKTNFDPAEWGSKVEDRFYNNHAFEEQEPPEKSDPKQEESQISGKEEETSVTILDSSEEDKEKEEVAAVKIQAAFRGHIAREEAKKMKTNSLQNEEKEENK
Briefly: SPR (Biacore T200), 6His-Sp17 at 6.25-300 nM as analyte. The text has this: The lines correspond, from highest to lowest, to fitted cycles for 300 nanomolar, 100 nanomolar, 50 nanomolar, 25 nanomolar, 12.5 nanomolar, and 6.25 nanomolar concentrations of 6His-Sp17.
The nucleotide sequences encoding the VH and VL regions of Example 1 were cloned into a mouse IgG2a heavy chain gene and a mouse kappa light chain gene, respectively, and expressed in CHO—S cells to produce a mouse-human chimeric antibody, which was named chAB2. Successful generation of the antibody was confirmed by SDS-PAGE and western blotting using anti-mouse heavy and light chain antibodies and recombinant Sp17 protein (FIGS. 2 & 3). The chAB2 antibody was reactive to mouse surface Sp17 protein expressed on the mouse ovarian cancer cell line ID8 (FIG. 4).
On the technique in general: Surface plasmon resonance follows binding to a sensor surface in real time, without labels.

B1: mouse-human chimeric anti-Sp17 IgG2a/kappa monoclonal antibody chAB2 (antibody, V domains shown)
VH: QVQLQQSGAEVKKPGSSVKVSCKASGGTFSSYAISWVRQAPGQGLEWMGRIIPILGIANYAQKFQGRVTITADKSTSTAYMELSSLRSEDTAVYYCARPSEEVVAAYGAFDIWGQGTTVTVSS
VL: EIVLTQSPLSLPVRPGEPASISCRASQSLLRSDGFNYLDWYLQKPGQSPQLLVYLGSNRASGVPDRFSGSGSGTDFTLKISRVEAEDVGVYYCMQAVQTPYIFGQGTKLEIK
notes: also called anti-Sp17 antibody chAB2; chimeric monoclonal antibody (chAB2); not shown: mouse IgG2a heavy chain constant region; mouse kappa light chain constant region
Consider B1, for which the dissociation constant (Kd) was 2.07 nM, the koff turned out to be 0.00013 s⁻¹ and the kon amounted to 62600 M⁻¹ s⁻¹.

Broadly, the Kd is the free concentration of one partner at which half of the binding sites on the other are occupied at equilibrium, for simple one-to-one binding. Usually koff stands for the first-order rate constant of dissociation. Usually kon stands for a measure of how fast the partners come together.
